The text below walks through data of the supplement of paper PMC9732359.

This data set can be described thus: protein stability index of a GFP-peptide fusion (yeast GPS) (PSI 1-4); higher = more stable; sorted into four equal gates, so the index is relative within each strain. In short, it runs like this:
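Tiled 17-residue yeast protein peptides were fused downstream of GFP in a plasmid that also expresses Cherry, and the pooled library was carried in yeast. Mid-log cultures in leucine-free medium were sorted into four equal gates by GFP/Cherry fluorescence ratio, and plasmids from each gate were PCR-amplified and Illumina-sequenced, with reads assigned to strains by barcodes. The protein stability index for each peptide was each gate's read frequency times its gate number, summed.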

± gives the uncertainty stated by the source.

VTVEQLRSIYHQFHDIL [NSL1]: the protein stability index reads like this: (doa10∆) 2.41 ± 0.11; (pdr5∆) 1.9 ± 0.073; (san1∆) 1.31 ± 0.16; (ubr1∆) 1.81 ± 0.066.
In the same order, the values of VTWRTFTGDFLRRVEER [FAS1] are 2.79 ± 0.12, 1.78 ± 0.096, 1.96 ± 0.12 and 1.24 ± 0.15.
Turning to VVERHLEDGDVVLFNRQ [RPO31], the protein stability index was found to be 3.41 ± 0.079 (doa10∆), 3.32 ± 0.077 (pdr5∆), 3.57 ± 0.069 (san1∆) and 3.38 ± 0.083 (ubr1∆).
With VVFTRLVQRCWQWGNDR [CSN12], the protein stability index was determined as 1.42 ± 0.092 (doa10∆), 1.4 ± 0.08 (pdr5∆), 1.58 ± 0.14 (san1∆) and 1.52 ± 0.058 (ubr1∆).
With VVGQLFQIDNDNIRYAT [SMC2], the protein stability index is, setting by setting: (doa10∆) 2.67 ± 0.067; (pdr5∆) 2.67 ± 0.066; (san1∆) 2.65 ± 0.065; (ubr1∆) 2.88 ± 0.078.
Regarding VVMAMYNPKMIDDRDYV [RET1], the protein stability index by setting is: (doa10∆) 3.36 ± 0.27; (ubr1∆) 3.45 ± 0.27.
As for VVSTDLESIQKTKEAVA [RPL4A], the protein stability index by setting is: (doa10∆) 2.95 ± 0.072; (pdr5∆) 3.12 ± 0.083; (san1∆) 2.9 ± 0.08; (ubr1∆) 2.82 ± 0.063.
Regarding VVTMSVKSVNDPSQNRL [RPC37], the protein stability index came to 2.27 ± 0.19 (doa10∆), 2.56 ± 0.27 (pdr5∆) and 2.42 ± 0.17 (san1∆).
As to VYAQQSTVQTPITASMA [PGD1], the protein stability index is, setting by setting: (doa10∆) 1.59 ± 0.056; (pdr5∆) 1.95 ± 0.079; (san1∆) 1.51 ± 0.09; (ubr1∆) 1.86 ± 0.042.
In the same order, the values of VYDIMALEDEERDEILT [BRR2] are 3.15 ± 0.16, 3.28 ± 0.15, 3.08 ± 0.078 and 3.39 ± 0.096.
In the same order, the values of VYSFDPVGSYEREQCRA [PRE7] are 3.62 ± 0.23, 3.47 ± 0.23, 3.27 ± 0.13 and 3.29 ± 0.091.
In the same order, the values of VYVTGGRNLGRIGTIVH [RPS4A] are 3.02 ± 0.21, 2.8 ± 0.18, 3.18 ± 0.084 and 3.4 ± 0.13.
In the case of WAEHLSDEVKRRFYKNW [RPL3], the protein stability index reads like this: (doa10∆) 3.31 ± 0.2; (pdr5∆) 2.9 ± 0.25; (san1∆) 3.34 ± 0.14; (ubr1∆) 3.37 ± 0.17.
Turning to WCAGAGTAADTEAVTQL [PUP1], the protein stability index is, setting by setting: (doa10∆) 3.16 ± 0.24; (pdr5∆) 2.94 ± 0.23; (san1∆) 2.78 ± 0.21.
As for WCQEAFPSSETTSLNPI [BRR2], the protein stability index was 3.23 ± 0.11 (doa10∆), 3.33 ± 0.097 (pdr5∆), 3.48 ± 0.11 (san1∆) and 3.23 ± 0.17 (ubr1∆).
In the same order, the values of WEISNPDFLSKYSAITS [NUT1] are 1.54 ± 0.045, 2.06 ± 0.044, 1.51 ± 0.073 and 1.59 ± 0.041.
With WFCPCHGSHYDISGRIR [RIP1], the protein stability index by setting is: (pdr5∆) 2.31 ± 0.18; (san1∆) 2.64 ± 0.25.
As to WFLDHNYIENMNEMCKK [RPN8], the protein stability index (doa10∆) came out at 3.54 ± 0.18, the protein stability index (pdr5∆) came out at 3.26 ± 0.12, the protein stability index (san1∆) was 2.93 ± 0.077 and the protein stability index (ubr1∆) turned out to be 3.2 ± 0.083.
The like results for WGEQKKAMSSRAGVSQV [RPB2] were, in that order, 3.27 ± 0.12, 3.17 ± 0.099, 3.25 ± 0.071 and 3.32 ± 0.05.
In the same order, the values of WGIPLIKELRSKGYPIQ [FAS1] are 2.38 ± 0.16, 2.75 ± 0.091, 1.69 ± 0.2 and 1.85 ± 0.071.
Consider WGMEPLEDYVPHQSPDA [RPB2], for which the protein stability index came out at 2.85 ± 0.11 (doa10∆), 3.3 ± 0.13 (pdr5∆), 2.98 ± 0.081 (san1∆) and 2.98 ± 0.076 (ubr1∆).
In the same order, the values of WGYQMVWAPTQKCFKLT [POP1] are 2.59 ± 0.069, 2.62 ± 0.068, 2.57 ± 0.069 and 2.66 ± 0.067.
In the case of WHIEETGEWFSSYEEFL [ITC1], the protein stability index is 2.31 ± 0.072 (doa10∆), 2.63 ± 0.077 (pdr5∆), 2.59 ± 0.066 (san1∆) and 2.53 ± 0.063 (ubr1∆).
The like results for WKFKSLIEILRLRALQL [RRI2] were, in that order, 1.45 ± 0.093, 1.21 ± 0.075, 1.14 ± 0.13 and 1.08 ± 0.075.
The sequence WKIPQNDIPQTESPLKT [SSN2] showed a protein stability index (doa10∆) of 2.71 ± 0.082, a protein stability index (pdr5∆) of 2.23 ± 0.058, a protein stability index (san1∆) of 2.13 ± 0.08 and a protein stability index (ubr1∆) of 2.38 ± 0.039.
With WLAAATATGIKVFSLDP [ASC1], the protein stability index (doa10∆) is 2.58 ± 0.049, the protein stability index (pdr5∆) is 2.69 ± 0.045, the protein stability index (san1∆) amounted to 2.81 ± 0.036 and the protein stability index (ubr1∆) came out at 2.43 ± 0.029.
In the same order, the values of WLLHNGFSTGIGDTIAD [RPO21] are 3.11 ± 0.16, 3.24 ± 0.17, 3.26 ± 0.093 and 3.06 ± 0.15.
